Source: the supplement of paper PMC10724198
± gives the standard deviation of the averaged measurements.

tested on: Saccharomyces cerevisiae; assay: protein stability index of tFT-peptide fusion (C-terminal peptide) (PSI (0-1 scale)); higher = more stable (slower turnover); conditions: genetic background: wild type; temperature: 30 C
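Also: PSI is a weighted mean of sequencing reads over stability bins, variants kept only with over 10 reads, mCherry proximal and sfGFP distal, peptide attached via GGGS linker.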

MESIIHPNSGIV and MFGCGSRGSGVV are within error of each other in protein stability index: 0.744 ± 0.13 for the first, 0.695 ± 0.093 for the second.

MFLPNPTLLTLN and MGGLFGWLVFWI are within error of each other in protein stability index: 0.559 ± 0.022 for the first, 0.653 ± 0.27 for the second.

Going from MGGMGRGGRREI to MGKEELDKKDEG, the protein stability index falls from 0.692 ± 0.022 to 0.625 ± 0.032.

MGYYDGIRYKEV and MILNLLLFRSKK are within error of each other in protein stability index: 0.735 ± 0.092 for the first, 0.67 ± 0.05 for the second.

Compared with MKPPIGGNKPGL, MKRRSEGDLLQP is lower in protein stability index: 0.726 ± 0.017 for the first, 0.64 ± 0.047 for the second.

MKSSPFRASLDT and MNLAGRRAVEEW are within error of each other in protein stability index: 0.676 ± 0.094 for the first, 0.659 ± 0.024 for the second.

MNPRLTNKNNSS and MNPSADYSIGAR are within error of each other in protein stability index: 0.765 ± 0.058 for the first, 0.688 ± 0.062 for the second.

MNVHGHERLRPS and MPARGLAWLPVS are within error of each other in protein stability index: 0.678 ± 0.066 for the first, 0.654 ± 0.064 for the second.

Compared with MPPRNAENRSLP, MPRSGRLSSRKE is higher in protein stability index: 0.6793 ± 0.003 for the first, 0.718 ± 0.023 for the second.

MPVWGGSASRAL and MRAIRPGHSDLV are within error of each other in protein stability index: 0.713 ± 0.066 for the first, 0.629 ± 0.043 for the second.

MRRAQADRVYRL and MRRNGRNILGVA are within error of each other in protein stability index: 0.7097 ± 0.0024 for the first, 0.729 ± 0.054 for the second.

MRVKRVEVVRGG and MRWVISEDPGFR are within error of each other in protein stability index: 0.6903 ± 0.0061 for the first, 0.695 ± 0.018 for the second.

MSGPHGGVADRD and MSKSLQTSSHKT are within error of each other in protein stability index: 0.676 ± 0.054 for the first, 0.663 ± 0.018 for the second.

Compared with MTEFSESEGFIF, MTMGNWLRLKRR is lower in protein stability index: 0.735 ± 0.064 for the first, 0.62 ± 0.024 for the second.

MTSCAVDHPERR and MTWQSASGNRVA are within error of each other in protein stability index: 0.703 ± 0.0047 for the first, 0.699 ± 0.056 for the second.

Compared with MVISTRARCMFF, MVSMFRLFLGLV is lower in protein stability index: 0.6727 ± 0.0059 for the first, 0.589 ± 0.016 for the second.

First: MVWCVSRGEGPV
Second: MVYLSSQYSATT
The protein stability index of the first is higher: 0.762 ± 0.037 for the first, 0.661 ± 0.039 for the second.

Going from MWVRKPNGNGSF to MYLLSFRALGSS, the protein stability index falls from 0.6877 ± 0.0055 to 0.54 ± 0.0098.

First: MYTCMSSNPLAC
Second: NAKQVYVSVMTR
The protein stability index of the first is higher: 0.66 ± 0.039 for the first, 0.5 ± 0.063 for the second.

NCAPVPLSPADS and NEGYLIQGVSMG are within error of each other in protein stability index: 0.685 ± 0.032 for the first, 0.706 ± 0.0084 for the second.

NELRREVLEEDL and NFFGPAIFLRRR are within error of each other in protein stability index: 0.657 ± 0.0085 for the first, 0.678 ± 0.022 for the second.

Going from NFVLACYSYNYW to NGREHHLESSYN, the protein stability index rises from 0.523 ± 0.011 to 0.654 ± 0.038.

First: NGSGVSEDRDEK
Second: NGTLQKGGLRRQ
The protein stability index of the first is lower: 0.6298 ± 0.0034 for the first, 0.6547 ± 0.00088 for the second.

NGVLGYAVLEGE and NHHETRNDCSST are within error of each other in protein stability index: 0.705 ± 0.044 for the first, 0.771 ± 0.12 for the second.

Compared with NHQKFILAACGT, NIKLKVCKEEMR is lower in protein stability index: 0.68 ± 0.029 for the first, 0.5706 ± 0.0012 for the second.

NIKNQEVKTHDT and NIKPEDRNSTNA are within error of each other in protein stability index: 0.6796 ± 0.0054 for the first, 0.633 ± 0.087 for the second.

First: NIRETVILRIMQ
Second: NIYDFQPPVSGH
The protein stability index of the first is lower: 0.606 ± 0.048 for the first, 0.77 ± 0.052 for the second.

NKARVDCNRSRC and NKDEVHRRRGRI are within error of each other in protein stability index: 0.781 ± 0.2 for the first, 0.718 ± 0.017 for the second.

NKDKNDDRKLLG and NKDQKTKKNKRK are within error of each other in protein stability index: 0.723 ± 0.12 for the first, 0.661 ± 0.075 for the second.

Going from NKFETCIANMYI to NKHVMELPGEPG, the protein stability index falls from 0.718 ± 0.058 to 0.647 ± 0.0079.

NKIDAGTPEKHR and NKIKKTQKKKLG are within error of each other in protein stability index: 0.626 ± 0.041 for the first, 0.766 ± 0.1 for the second.

First: NKKDCFRNRKWE
Second: NKKKKHKNSKNN
The protein stability index of the first is lower: 0.593 ± 0.03 for the first, 0.704 ± 0.055 for the second.

NKKKKKKSTKRN and NKKKKQRGKKQK are within error of each other in protein stability index: 0.691 ± 0.044 for the first, 0.725 ± 0.045 for the second.

NKKKKQRINIRG and NKRKNVFESTNA are within error of each other in protein stability index: 0.749 ± 0.068 for the first, 0.678 ± 0.019 for the second.

Compared with NLCRFHFRNRFS, NLDFGYAERWQG is higher in protein stability index: 0.565 ± 0.011 for the first, 0.768 ± 0.06 for the second.

First: NLHLVRNEELVL
Second: NLITKWTCMRLF
The protein stability index of the first is higher: 0.6743 ± 0.0036 for the first, 0.511 ± 0.014 for the second.

NLRRPLYYNGSV and NNNKKKDDNIDM are within error of each other in protein stability index: 0.757 ± 0.076 for the first, 0.618 ± 0.079 for the second.

NPMSLTTKRKTE and NPQRGLNAQLFG are within error of each other in protein stability index: 0.651 ± 0.11 for the first, 0.656 ± 0.045 for the second.

NPQTVNSPIFPT and NPTDIAINTGIS are within error of each other in protein stability index: 0.752 ± 0.018 for the first, 0.742 ± 0.0081 for the second.

Compared with NQAQTQQMKTEW, NQAWYFVRLAGD is higher in protein stability index: 0.608 ± 0.05 for the first, 0.776 ± 0.022 for the second.

NQCRSQVRQNGY and NQEPRVSFCRDS are within error of each other in protein stability index: 0.762 ± 0.15 for the first, 0.716 ± 0.044 for the second.

Compared with NQRCLRGKIVRC, NRDSRTLGSTVG is higher in protein stability index: 0.633 ± 0.03 for the first, 0.6744 ± 0.0011 for the second.

NRGPPNMRQITP and NRKGNKHEKKYE are within error of each other in protein stability index: 0.712 ± 0.085 for the first, 0.691 ± 0.0039 for the second.

NRNIRKKKIKNK and NRRERQQREVYN are within error of each other in protein stability index: 0.668 ± 0.054 for the first, 0.741 ± 0.21 for the second.

Compared with NRRGGTLLATLF, NRSERIKDNRGK is higher in protein stability index: 0.659 ± 0.017 for the first, 0.723 ± 0.025 for the second.

First: NRSFIITRSVLS
Second: NSALQELNKAVG
The protein stability index of the first is higher: 0.683 ± 0.029 for the first, 0.625 ± 0.029 for the second.

NSESVRLGLGNE and NSGSQSQDKQER are within error of each other in protein stability index: 0.705 ± 0.054 for the first, 0.658 ± 0.013 for the second.

First: NSPKTKKTNFKE
Second: NSRCSIQGAPLL
The protein stability index of the first is lower: 0.665 ± 0.017 for the first, 0.726 ± 0.041 for the second.

NSSPRFPTPDNP and NSVLRESSGLQL are within error of each other in protein stability index: 0.6618 ± 0.00081 for the first, 0.689 ± 0.044 for the second.

NSVWPGYPCTHP and NTGEHVVPCKGT are within error of each other in protein stability index: 0.639 ± 0.03 for the first, 0.659 ± 0.0067 for the second.

First: NTGGVTRVIGCV
Second: NTGNGYDEKTME
The protein stability index of the first is lower: 0.704 ± 0.029 for the first, 0.7622 ± 0.0014 for the second.

Going from NTHPPPLPTTKH to NTNEKKRQRKKK, the protein stability index falls from 0.7393 ± 0.007 to 0.6389 ± 0.0037.

NTSKEDENKARI and NVIGSGLFVGWD are within error of each other in protein stability index: 0.707 ± 0.019 for the first, 0.795 ± 0.087 for the second.

NVLIISEQNHEP and NVYRYSWYCSEF are within error of each other in protein stability index: 0.748 ± 0.047 for the first, 0.728 ± 0.088 for the second.

NWLYPYSLRRRG and PAAPPLGFTRTD are within error of each other in protein stability index: 0.663 ± 0.13 for the first, 0.7 ± 0.0095 for the second.

PAELGAGYVMGG and PAGSRGRHSRER are within error of each other in protein stability index: 0.699 ± 0.022 for the first, 0.712 ± 0.061 for the second.

First: PAGVPPAVCRDL
Second: PAHSLPPPPPPP
The protein stability index of the first is lower: 0.609 ± 0.0092 for the first, 0.702 ± 0.041 for the second.

Going from PALPHQPLPRPQ to PALPPLPPPPPA, the protein stability index falls from 0.797 ± 0.023 to 0.71 ± 0.016.

Going from PALPPPVLLRLP to PALPTPILSSPP, the protein stability index rises from 0.557 ± 0.062 to 0.709 ± 0.012.

PAPLPFPPPSLP and PAPLPPPAPSST are within error of each other in protein stability index: 0.701 ± 0.032 for the first, 0.69 ± 0.02 for the second.

PAPLRSPLVLPS and PAPPPPPPGTAA are within error of each other in protein stability index: 0.721 ± 0.039 for the first, 0.641 ± 0.061 for the second.

PAPPPQSPAPYR and PAPPRSLPPSSP are within error of each other in protein stability index: 0.704 ± 0.049 for the first, 0.6536 ± 0.0058 for the second.

PARPPPPRPPPP and PASLSPAVPESS are within error of each other in protein stability index: 0.712 ± 0.03 for the first, 0.719 ± 0.044 for the second.

PASPCTPLPFSP and PASPTLRPYWDP are within error of each other in protein stability index: 0.686 ± 0.04 for the first, 0.645 ± 0.068 for the second.

First: PASSAPDSSTAH
Second: PAVIVAPYSQGE
The protein stability index of the first is higher: 0.7406 ± 0.0052 for the first, 0.701 ± 0.025 for the second.

First: PAVSLPPPAPAS
Second: PAYACLCGFGIA
The protein stability index of the first is higher: 0.721 ± 0.051 for the first, 0.62754 ± 0.00056 for the second.

First: PCGLRLAFRLSL
Second: PCHPGASLRRRL
The protein stability index of the first is lower: 0.619 ± 0.038 for the first, 0.861 ± 0.067 for the second.

First: PCPHPLRPALIL
Second: PCPLPVPCCLRP
The protein stability index of the first is higher: 0.704 ± 0.014 for the first, 0.636 ± 0.016 for the second.

PCPRIPSSRRLA and PCRANRRLVTSP are within error of each other in protein stability index: 0.574 ± 0.044 for the first, 0.628 ± 0.056 for the second.

Going from PCVISRPPRLFP to PDGGPGLLRFVL, the protein stability index falls from 0.752 ± 0.06 to 0.64 ± 0.015.

Compared with PDLEMQMTRTRG, PDLLHLPAHRHA is lower in protein stability index: 0.70081 ± 0.00044 for the first, 0.6722 ± 0.0055 for the second.

PDLPHYHPPPPL and PDRPVISLLLPS are within error of each other in protein stability index: 0.727 ± 0.011 for the first, 0.646 ± 0.079 for the second.

PEGCQDGASPAE and PEGLKKKKEKRI are within error of each other in protein stability index: 0.759 ± 0.021 for the first, 0.706 ± 0.049 for the second.

Compared with PELLGVARDGFR, PESTPRVHSNDY is higher in protein stability index: 0.65 ± 0.0097 for the first, 0.691 ± 0.027 for the second.

PFFSFLYPRFYF and PFFVRNTFTCSL are within error of each other in protein stability index: 0.682 ± 0.0096 for the first, 0.735 ± 0.11 for the second.

PFLRPPSPPSSP and PFPFSLPSPPLP are within error of each other in protein stability index: 0.66 ± 0.013 for the first, 0.551 ± 0.14 for the second.

PFPLPPLHSSHR and PFPPRPPSDRIR are within error of each other in protein stability index: 0.734 ± 0.03 for the first, 0.659 ± 0.088 for the second.

PFPPTPVRRVPL and PFPRGCCRLLSP are within error of each other in protein stability index: 0.715 ± 0.025 for the first, 0.707 ± 0.012 for the second.

Compared with PFRPPPRFPPPV, PFSAPRRLPRTV is lower in protein stability index: 0.815 ± 0.042 for the first, 0.697 ± 0.0089 for the second.

PFSGLPVRCELC and PFSLPAFLLPTL are within error of each other in protein stability index: 0.672 ± 0.048 for the first, 0.712 ± 0.053 for the second.
